Target: ADAM17 (UniProt P78536)
Assay: BLI (Octet Red96, 25 C), antibody captured on anti-human Fab-CH1 (FAB2G) biosensor, antigen in solution

Row | Kd | koff | kon | Binder
1 | 4.9 nM | 0.0012 s⁻¹ | 240000 M⁻¹ s⁻¹ | D5.P2.B3 (Fab, V domains shown) VH: QVQLQQSGAEVKKPGASVKVSCKASGYTFTGYYMHWVRQAPGQGLEWMGWINGNSGGTNYAQKFQGRVTMTRDTSISTAYMELSRLKSDNTAVYYCASSGSMDVWGQGTLVTVSS VL: QSVVTQPPSVSGAPGQRVTISCSGSSSNVGRNLVYWYQQLPGAAPRLLIYRNNQRPSGVPDRFSGSKSGTSASLAISGLRSEDEADYYCAAWDDSLSGVVFGGGTKLTVLG
2 | 5.3 nM | 0.0023 s⁻¹ | 430000 M⁻¹ s⁻¹ | D5.P1.A4 (Fab, V domains shown) VH: QVQLQQSGAEVKKPGASVKVSCKASGYTFTGYYMHWVRQAPGQGLEWMGWINGKSGGTNYAQKFQGRVTMTRDTSISTAYMELSRLKSDDTAVYYCARLDRRDYWGQGTLVTVSS VL: QSVVTQPPSVSGAPGQRVTISCSGSSSNVGRNLVYWYQQLPGAAPRLLIYRNNQRPSGVPDRFSGSKSGTSASLAISGLRSEDEADYYCAAWDDSLSGVVFGGGTKLTVLG

Reference: patent publication US20230159653A1
